Results reported in article PMC4414194.

How the values were obtained:
HDAC3 = HDAC3 (UniProt O15379); assay: anti-GFP co-IP, anti-Flag blot; conditions: reference: GATA1 wild type; sites S161,S187
HDAC4 = HDAC4 (UniProt P56524); assay: anti-GFP co-IP, anti-Flag blot; conditions: reference: GATA1 wild type; sites S161,S187

binding against the reference (HDAC3): weaker | binding against the reference (HDAC4): weaker
Substance: GATA1 (from UniProt P15976) GATA1 S161A S187A
